{"source": "patent US20260317446", "about": "(published 2026)", "key": {"[1]": {"target": "calmodulin", "experiment": "other dot blot"}, "[2]": {"target": "YKL-40 A250 (human)", "experiment": "BLI"}, "[3]": {"target": "YKL-40 A42 (human)", "sequence (chain, as listed by the source)": "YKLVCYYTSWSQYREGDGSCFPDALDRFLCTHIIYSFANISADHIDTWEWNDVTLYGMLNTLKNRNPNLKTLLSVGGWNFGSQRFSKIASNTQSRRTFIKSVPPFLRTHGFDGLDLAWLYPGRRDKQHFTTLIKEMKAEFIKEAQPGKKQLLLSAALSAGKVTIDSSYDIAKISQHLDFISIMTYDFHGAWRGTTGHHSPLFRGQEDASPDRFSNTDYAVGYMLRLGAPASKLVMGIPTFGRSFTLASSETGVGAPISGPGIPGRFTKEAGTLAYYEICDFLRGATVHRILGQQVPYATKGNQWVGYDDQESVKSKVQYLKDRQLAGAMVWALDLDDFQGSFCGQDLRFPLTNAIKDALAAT", "experiment": "BLI"}, "[4]": {"target": "YKL-40 A107 (human)", "experiment": "BLI"}, "[5]": {"target": "YKL-40 A192 (human)", "sequence (chain, as listed by the source)": "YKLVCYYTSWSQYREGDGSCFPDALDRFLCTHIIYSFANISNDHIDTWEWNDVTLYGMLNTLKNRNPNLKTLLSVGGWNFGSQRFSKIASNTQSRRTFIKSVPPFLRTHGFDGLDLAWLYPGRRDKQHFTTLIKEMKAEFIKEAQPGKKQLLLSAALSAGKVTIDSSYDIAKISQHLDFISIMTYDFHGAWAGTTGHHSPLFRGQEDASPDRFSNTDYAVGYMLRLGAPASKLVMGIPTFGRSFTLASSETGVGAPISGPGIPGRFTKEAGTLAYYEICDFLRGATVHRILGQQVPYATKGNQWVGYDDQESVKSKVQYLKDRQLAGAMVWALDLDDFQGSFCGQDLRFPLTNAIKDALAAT", "experiment": "BLI"}, "[6]": {"target": "YKL-40 A283 (human)", "experiment": "BLI"}, "[7]": {"target": "YKL-40 A135 (human)", "sequence (chain, as listed by the source)": "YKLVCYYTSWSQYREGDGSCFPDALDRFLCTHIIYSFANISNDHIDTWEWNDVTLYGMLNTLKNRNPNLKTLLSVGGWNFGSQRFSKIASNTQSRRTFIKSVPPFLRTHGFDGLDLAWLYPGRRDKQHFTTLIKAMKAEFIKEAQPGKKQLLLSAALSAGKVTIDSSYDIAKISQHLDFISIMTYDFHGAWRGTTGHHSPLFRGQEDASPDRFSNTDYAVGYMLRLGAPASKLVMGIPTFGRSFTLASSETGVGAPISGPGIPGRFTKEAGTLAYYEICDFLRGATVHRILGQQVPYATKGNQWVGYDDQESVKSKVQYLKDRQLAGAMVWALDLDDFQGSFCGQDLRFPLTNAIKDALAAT", "experiment": "BLI"}, "[8]": {"target": "human YKL-40 WT (human)", "experiment": "BLI"}, "[9]": {"target": "YKL-40 A300 (human)", "experiment": "BLI"}, "[10]": {"target": "YKL-40 A141 (human)", "experiment": "BLI"}, "[11]": {"target": "YKL-40 A108 (human)", "experiment": "BLI"}, "[12]": {"target": "YKL-40 A142 (human)", "sequence (chain, as listed by the source)": "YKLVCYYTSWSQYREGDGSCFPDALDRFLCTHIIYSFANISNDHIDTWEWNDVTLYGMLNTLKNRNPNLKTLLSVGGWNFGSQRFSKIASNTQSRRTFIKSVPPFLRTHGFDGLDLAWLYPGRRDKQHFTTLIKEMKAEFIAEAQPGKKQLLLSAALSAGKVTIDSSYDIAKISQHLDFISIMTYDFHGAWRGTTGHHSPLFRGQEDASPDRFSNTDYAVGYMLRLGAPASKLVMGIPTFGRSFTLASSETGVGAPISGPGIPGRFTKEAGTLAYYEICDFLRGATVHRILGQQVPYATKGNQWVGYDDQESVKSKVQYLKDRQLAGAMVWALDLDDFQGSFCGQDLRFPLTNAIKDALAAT", "experiment": "BLI"}, "[13]": {"target": "YKL-40 A134 (human)", "experiment": "BLI"}, "[14]": {"target": "YKL-40 A287 (human)", "sequence (chain, as listed by the source)": "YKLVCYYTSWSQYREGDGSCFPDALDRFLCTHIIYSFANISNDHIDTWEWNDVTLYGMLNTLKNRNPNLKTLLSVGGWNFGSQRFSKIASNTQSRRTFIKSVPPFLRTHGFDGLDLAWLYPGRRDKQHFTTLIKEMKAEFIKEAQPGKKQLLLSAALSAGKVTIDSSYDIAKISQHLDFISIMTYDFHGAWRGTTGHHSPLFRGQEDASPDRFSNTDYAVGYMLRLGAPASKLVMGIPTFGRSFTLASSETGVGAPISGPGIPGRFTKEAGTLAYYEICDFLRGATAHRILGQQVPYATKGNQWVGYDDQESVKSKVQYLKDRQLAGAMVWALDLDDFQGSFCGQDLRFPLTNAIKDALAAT", "experiment": "BLI"}, "[15]": {"target": "YKL-40 A256 (human)", "experiment": "BLI"}, "[16]": {"target": "YKL-40 A191 (human)", "experiment": "BLI"}, "[17]": {"target": "YKL-40 A175 (human)", "sequence (chain, as listed by the source)": "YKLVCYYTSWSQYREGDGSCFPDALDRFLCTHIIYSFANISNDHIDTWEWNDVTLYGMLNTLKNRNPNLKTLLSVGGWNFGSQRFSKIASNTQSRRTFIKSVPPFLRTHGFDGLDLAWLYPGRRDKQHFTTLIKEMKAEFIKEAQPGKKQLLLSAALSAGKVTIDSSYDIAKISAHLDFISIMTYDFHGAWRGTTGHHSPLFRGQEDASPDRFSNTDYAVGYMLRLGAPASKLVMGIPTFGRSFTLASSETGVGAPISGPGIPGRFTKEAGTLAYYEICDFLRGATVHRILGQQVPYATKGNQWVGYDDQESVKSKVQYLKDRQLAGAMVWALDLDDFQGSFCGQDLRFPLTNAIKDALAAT", "experiment": "BLI"}, "[18]": {"target": "YKL-40 A288 (human)", "experiment": "BLI"}, "[19]": {"target": "YKL-40 A92 (human)", "experiment": "BLI"}, "[20]": {"target": "YKL-40 A145 (human)", "sequence (chain, as listed by the source)": "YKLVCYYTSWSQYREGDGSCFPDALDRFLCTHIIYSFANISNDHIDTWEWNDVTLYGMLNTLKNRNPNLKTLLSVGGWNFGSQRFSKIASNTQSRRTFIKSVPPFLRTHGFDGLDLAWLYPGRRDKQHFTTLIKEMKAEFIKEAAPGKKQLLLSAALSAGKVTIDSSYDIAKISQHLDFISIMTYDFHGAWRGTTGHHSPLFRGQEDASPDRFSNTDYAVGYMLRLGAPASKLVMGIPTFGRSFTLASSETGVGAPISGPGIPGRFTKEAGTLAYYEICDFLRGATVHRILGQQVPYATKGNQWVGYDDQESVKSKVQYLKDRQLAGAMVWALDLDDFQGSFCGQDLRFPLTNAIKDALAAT", "experiment": "BLI"}, "[21]": {"target": "YKL-40 A289 (human)", "sequence (chain, as listed by the source)": "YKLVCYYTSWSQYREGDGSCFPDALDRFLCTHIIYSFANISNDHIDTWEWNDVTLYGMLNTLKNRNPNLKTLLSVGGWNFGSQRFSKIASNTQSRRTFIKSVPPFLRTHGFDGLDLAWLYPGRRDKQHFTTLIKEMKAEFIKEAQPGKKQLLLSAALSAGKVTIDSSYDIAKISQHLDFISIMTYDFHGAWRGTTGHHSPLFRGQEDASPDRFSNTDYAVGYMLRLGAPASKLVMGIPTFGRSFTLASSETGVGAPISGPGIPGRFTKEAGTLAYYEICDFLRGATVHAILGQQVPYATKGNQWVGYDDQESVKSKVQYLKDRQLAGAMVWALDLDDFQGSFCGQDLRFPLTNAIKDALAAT", "experiment": "BLI"}, "[22]": {"target": "YKL-40 A44 (human)", "experiment": "BLI"}, "[23]": {"target": "YKL-40 A302 (human)", "experiment": "BLI"}, "[24]": {"target": "YKL-40 R284 (human)", "sequence (chain, as listed by the source)": "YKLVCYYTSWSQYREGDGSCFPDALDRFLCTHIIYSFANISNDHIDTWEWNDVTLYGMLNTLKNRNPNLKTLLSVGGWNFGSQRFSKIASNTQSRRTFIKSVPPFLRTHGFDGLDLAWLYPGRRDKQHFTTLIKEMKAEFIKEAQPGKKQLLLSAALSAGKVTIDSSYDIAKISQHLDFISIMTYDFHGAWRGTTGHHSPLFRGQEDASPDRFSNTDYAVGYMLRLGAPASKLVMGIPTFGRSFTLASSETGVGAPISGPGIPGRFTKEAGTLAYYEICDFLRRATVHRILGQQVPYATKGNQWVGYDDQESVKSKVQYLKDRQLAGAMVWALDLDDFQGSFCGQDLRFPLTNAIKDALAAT", "experiment": "BLI"}, "[25]": {"target": "YKL-40 A146 (human)", "experiment": "BLI"}, "[26]": {"target": "YKL-40 A93 (human)", "sequence (chain, as listed by the source)": "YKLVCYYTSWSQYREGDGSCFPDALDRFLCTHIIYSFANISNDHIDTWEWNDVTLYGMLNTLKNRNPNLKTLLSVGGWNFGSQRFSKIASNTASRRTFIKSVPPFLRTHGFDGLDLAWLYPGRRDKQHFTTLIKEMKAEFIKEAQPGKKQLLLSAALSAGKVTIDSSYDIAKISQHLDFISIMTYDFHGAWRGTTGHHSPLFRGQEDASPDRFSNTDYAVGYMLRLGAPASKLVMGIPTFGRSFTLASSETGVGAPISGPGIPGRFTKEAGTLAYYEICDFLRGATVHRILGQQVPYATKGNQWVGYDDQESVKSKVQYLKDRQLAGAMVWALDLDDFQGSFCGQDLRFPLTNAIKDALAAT", "experiment": "BLI"}, "[27]": {"target": "YKL-40 A286 (human)", "sequence (chain, as listed by the source)": "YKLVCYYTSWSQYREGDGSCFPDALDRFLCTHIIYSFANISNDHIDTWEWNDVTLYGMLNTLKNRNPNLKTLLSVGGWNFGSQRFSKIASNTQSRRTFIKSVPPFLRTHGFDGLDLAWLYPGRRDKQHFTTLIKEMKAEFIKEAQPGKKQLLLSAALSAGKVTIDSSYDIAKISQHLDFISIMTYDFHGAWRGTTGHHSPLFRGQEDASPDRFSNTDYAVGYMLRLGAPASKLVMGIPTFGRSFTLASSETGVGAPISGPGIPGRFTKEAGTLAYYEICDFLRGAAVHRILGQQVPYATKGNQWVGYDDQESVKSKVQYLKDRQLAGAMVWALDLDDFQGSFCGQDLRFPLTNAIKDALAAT", "experiment": "BLI"}, "[28]": {"target": "YKL-40 A104 (human)", "experiment": "BLI"}, "[29]": {"target": "YKL-40 A96 (human)", "experiment": "BLI"}, "[30]": {"target": "YKL-40 R301 (human)", "experiment": "BLI"}, "[31]": {"target": "YKL-40 A172 (human)", "experiment": "BLI"}, "[32]": {"target": "YKL-40 A148 (human)", "sequence (chain, as listed by the source)": "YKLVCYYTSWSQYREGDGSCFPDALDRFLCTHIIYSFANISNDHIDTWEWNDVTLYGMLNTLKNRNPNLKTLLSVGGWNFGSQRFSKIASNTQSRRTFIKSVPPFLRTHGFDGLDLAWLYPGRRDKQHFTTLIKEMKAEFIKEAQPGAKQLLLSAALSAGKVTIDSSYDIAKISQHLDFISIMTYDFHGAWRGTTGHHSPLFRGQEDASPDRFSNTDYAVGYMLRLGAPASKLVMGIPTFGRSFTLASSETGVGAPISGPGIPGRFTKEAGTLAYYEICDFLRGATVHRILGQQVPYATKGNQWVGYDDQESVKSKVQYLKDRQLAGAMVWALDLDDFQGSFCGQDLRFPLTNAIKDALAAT", "experiment": "BLI"}, "[33]": {"target": "YKL-40 A100 (human)", "experiment": "BLI"}, "[34]": {"target": "YKL-40 A149 (human)", "experiment": "BLI"}, "[35]": {"target": "YKL-40 A194 (human)", "sequence (chain, as listed by the source)": "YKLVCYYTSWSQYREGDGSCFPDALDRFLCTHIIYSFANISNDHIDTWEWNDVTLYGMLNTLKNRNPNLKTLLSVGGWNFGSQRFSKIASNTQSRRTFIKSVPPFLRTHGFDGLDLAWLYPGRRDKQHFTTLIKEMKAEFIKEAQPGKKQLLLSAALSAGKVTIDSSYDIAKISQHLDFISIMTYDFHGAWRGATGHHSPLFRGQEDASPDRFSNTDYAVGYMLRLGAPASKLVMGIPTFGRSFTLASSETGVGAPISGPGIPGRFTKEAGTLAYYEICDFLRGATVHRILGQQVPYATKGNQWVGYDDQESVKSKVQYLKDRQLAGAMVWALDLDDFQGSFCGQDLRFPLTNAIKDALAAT", "experiment": "BLI"}, "[36]": {"target": "YKL-40 A249 (human)", "experiment": "BLI"}}, "data": [{"binder": "B3-hFc (antibody) chain 1: MAEVQLLESGGGLVQPGGSLRLSCAASGFRDSDEDMGWVRQAPGKGLEWVSSISAPGGSTYYADSVKGRFTISRDNSKNTLYLQMNSLRAEDTAVYYCASHYNYGHWFDYWGQGTLVTVSSAA chain 2: VECPPCPAPPVAGPSVFLFPPKPKDTLMISRTPEVTCVVVDVSHEDPEVQFNWYVDGMEVHNAKTKPREEQFNSTFRVVSVLTVVHQDWLNGKEYKCKVSNKGLPAPIEKTISKTKGQPREPQVYTLPPSREEMTKNQVSLTCLVKGFYPSDIAVEWESNGQPENNYKTTPPMLDSDGSFFLYSKLTVDKSRWQQGNVFSCSVMHEALHNHYTQKSLSLSPGK", "values": [{"measurement": "binding result", "setting": "[1]", "value": "no binding"}]}, {"binder": "H7 (antibody, V domains shown) VH: EVQLQQSGAELVKPGASVKLSCTASGFNIKDTYMHWVKQRPEQGLEWIGRIDPANGNTIYASKFQGKATITRDTSSNTAYMQLSSLTSGDTAVYYCTRGVYYYGGSFYAMDYWGQGTSVTVSS VL: DIQMTQSPASLSASVGETVTITCGASENIYGALNWYQRKQGKSPQLLIYGATTLADGMSSRFSGSGSGRQYSLKISSLHPDDVATYYCQNVLTTPWTFGGGTKLEIKT", "values": [{"measurement": "Kd", "setting": "[2]", "value": 120, "unit": "nM"}, {"measurement": "Kd", "setting": "[3]", "value": 2540, "unit": "nM"}, {"measurement": "Kd", "setting": "[4]", "value": 0.611, "unit": "nM"}, {"measurement": "Kd", "setting": "[5]", "value": 0.699, "unit": "nM"}, {"measurement": "Kd", "setting": "[6]", "value": 1.07, "unit": "nM"}, {"measurement": "Kd", "setting": "[7]", "value": 0.755, "unit": "nM"}, {"measurement": "Kd", "setting": "[8]", "value": 1180, "unit": "nM"}, {"measurement": "Kd", "setting": "[9]", "value": 7260, "unit": "nM"}, {"measurement": "Kd", "setting": "[10]", "value": 0.638, "unit": "nM"}, {"measurement": "Kd", "setting": "[11]", "value": 0.529, "unit": "nM"}, {"measurement": "Kd", "setting": "[12]", "value": 0.79, "unit": "nM"}, {"measurement": "Kd", "setting": "[13]", "value": 0.516, "unit": "nM"}, {"measurement": "Kd", "setting": "[14]", "value": 164, "unit": "nM"}, {"measurement": "Kd", "setting": "[15]", "value": 104, "unit": "nM"}, {"measurement": "Kd", "setting": "[16]", "value": 4800, "unit": "nM"}, {"measurement": "Kd", "setting": "[17]", "value": 0.684, "unit": "nM"}, {"measurement": "Kd", "setting": "[18]", "value": 0.649, "unit": "nM"}, {"measurement": "Kd", "setting": "[19]", "value": 33.9, "unit": "nM"}, {"measurement": "Kd", "setting": "[20]", "value": 0.465, "unit": "nM"}, {"measurement": "Kd", "setting": "[21]", "value": 0.693, "unit": "nM"}, {"measurement": "Kd", "setting": "[22]", "value": 0.439, "unit": "nM"}, {"measurement": "Kd", "setting": "[23]", "value": 0.673, "unit": "nM"}, {"measurement": "Kd", "setting": "[24]", "value": 52000, "unit": "nM"}, {"measurement": "Kd", "setting": "[25]", "value": 0.773, "unit": "nM"}, {"measurement": "Kd", "setting": "[26]", "value": 0.777, "unit": "nM"}, {"measurement": "Kd", "setting": "[27]", "value": 0.472, "unit": "nM"}, {"measurement": "Kd", "setting": "[28]", "value": 0.423, "unit": "nM"}, {"measurement": "Kd", "setting": "[29]", "value": 0.558, "unit": "nM"}, {"measurement": "Kd", "setting": "[30]", "value": 0.753, "unit": "nM"}, {"measurement": "Kd", "setting": "[31]", "value": 0.655, "unit": "nM"}, {"measurement": "Kd", "setting": "[32]", "value": 0.817, "unit": "nM"}, {"measurement": "Kd", "setting": "[33]", "value": 0.906, "unit": "nM"}, {"measurement": "Kd", "setting": "[34]", "value": 0.84, "unit": "nM"}, {"measurement": "Kd", "setting": "[35]", "value": 20600, "unit": "nM"}, {"measurement": "Kd", "setting": "[36]", "value": 2480, "unit": "nM"}]}]}
